The results in this text go back to publication PMC8256087.

This experiment deals with SecYEG(148/298) labeled with Cy3 and Atto647N, embedded in nanodiscs (UniProt P0AGA2). Description: not stated; ratio of YidC to SecY in nanodiscs prepared with YidC at a concentration equal to that of SecYEG (SI Appendix, Fig. S9A).

B1: YidC (natural protein)
chain: MDSQRNLLVIALLFVSFMIWQAWEQDKNPQPQAQQTTQTTTTAAGSAADQGVPASGQGKLISVKTDVLDLTINTRGGDVEQALLPAYPKELNSTQPFQLLETSPQFIYQAQSGLTGRDGPDNPANGPRPLYNVEKDAYVLAEGQNELQVPMTYTDAAGNTFTKTFVLKRGDYAVNVNYNVQNAGEKPLEISSFGQLKQSITLPPHLDTGSSNFALHTFRGAAYSTPDEKYEKYKFDTIADNENLNISSKGGWVAMLQQYFATAWIPHNDGTNNFYTANLGNGIAAIGYKSQPVLVQPGQTGAMNSTLWVGPEIQDKMAAVAPHLDLTVDYGWLWFISQPLFKLLKWIHSFVGNWGFSIIIITFIVRGIMYPLTKAQYTSMAKMRMLQPKIQAMRERLGDDKQRISQEMMALYKAEKVNPLGGCFPLLIQMPIFLALYYMLMGSVELRQAPFALWIHDLSAQDPYYILPILMGVTMFFIQKMSPTTVTDPMQQKIMTFMPVIFTVFFLWFPSGLVLYYIVSNLVTIIQQQLIYRGLEKRGLHSREKKKS
B1: the stoichiometry N is 1 YidC:SecY.

For orientation: stoichiometry N means the number of molecules, sites or subunits per partner or assembly.
